Measurements published in patent US20240118272A1.

Assays:
[1] = biological target: CD9(ECD)-ALP conjugate (human; bovine); assay: HI-1000 capture immunoassay; thawed aliquot 2 of secondary calibrator C5
[2] = biological target: CD9(ECD)-ALP conjugate (human; bovine); assay: HI-1000 capture immunoassay; secondary calibrator C2; mean of 3 aliquots
[3] = biological target: CD9(FL)-ALP conjugate (human; bovine); assay: HI-1000 capture immunoassay; calibrator C3, 7.4 ng/mL; run 2
[4] = biological target: CD9(FL)-ALP conjugate (human; bovine); assay: HI-1000 capture immunoassay; calibrator C2, 5.48 mU/L; run 3
[5] = biological target: CD9(ECD)-ALP conjugate (human; bovine); assay: HI-1000 capture immunoassay; primary calibrator C3, 15.65 ng/mL; run 2
[6] = biological target: CD9(ECD)-ALP conjugate (human; bovine); assay: HI-1000 capture immunoassay; thawed aliquot 3 of secondary calibrator C1
[7] = biological target: CD9(FL)-ALP conjugate (human; bovine); assay: HI-1000 capture immunoassay; calibrator C1, 1.0 ng/mL; mean of 3
[8] = biological target: CD9(FL)-ALP conjugate (human; bovine); assay: HI-1000 capture immunoassay; calibrator C3, 10.96 mU/L; run 1
[9] = biological target: CD9(ECD)-ALP conjugate (human; bovine); assay: HI-1000 capture immunoassay; thawed aliquot 1 of secondary calibrator C1
[10] = biological target: CD9(FL)-ALP conjugate (human; bovine); assay: HI-1000 capture immunoassay; calibrator C4, 21.93 mU/L; run 1
[11] = biological target: CD9(ECD)-ALP conjugate (human; bovine); assay: HI-1000 capture immunoassay; secondary calibrator C5, 387.01 U/L; run 1
[12] = biological target: CD9(ECD)-ALP conjugate (human; bovine); assay: HI-1000 capture immunoassay; thawed aliquot 3 of secondary calibrator C3
[13] = biological target: CD9(ECD)-ALP conjugate (human; bovine); assay: HI-1000 capture immunoassay; secondary calibrator C3, 14.32 U/L; mean of 3
[14] = biological target: CD9(ECD)-ALP conjugate (human; bovine); assay: HI-1000 capture immunoassay; primary calibrator C3, 15.65 ng/mL; run 3
[15] = biological target: CD9(FL)-ALP conjugate (human; bovine); assay: HI-1000 capture immunoassay; calibrator C2, 3.7 ng/mL; run 3
[16] = biological target: CD9(FL)-ALP conjugate (human; bovine); assay: HI-1000 capture immunoassay; calibrator C1, 1.83 mU/L; run 1
[17] = biological target: CD9(ECD)-ALP conjugate (human; bovine); assay: HI-1000 capture immunoassay; secondary calibrator C1, 1.02 U/L; run 3
[18] = biological target: CD9(ECD)-ALP conjugate (human; bovine); assay: HI-1000 capture immunoassay; secondary calibrator C5; mean of 3 aliquots
[19] = biological target: CD9(FL)-ALP conjugate (human; bovine); assay: HI-1000 capture immunoassay; calibrator C2, 3.7 ng/mL; mean of 3
[20] = biological target: CD9(ECD)-ALP conjugate (human; bovine); assay: HI-1000 capture immunoassay; primary calibrator C1, 1.52 ng/mL; run 3
[21] = biological target: CD9(FL)-ALP conjugate (human; bovine); assay: HI-1000 capture immunoassay; calibrator C4, 21.93 mU/L; run 2
[22] = biological target: CD9(FL)-ALP conjugate (human; bovine); assay: HI-1000 capture immunoassay; calibrator C5, 30 ng/mL; run 2
[23] = biological target: CD9(ECD)-ALP conjugate (human; bovine); assay: HI-1000 capture immunoassay; thawed aliquot 3 of secondary calibrator C5
[24] = biological target: CD9(FL)-ALP conjugate (human; bovine); assay: HI-1000 capture immunoassay; calibrator C1, 1.0 ng/mL; run 1
[25] = biological target: CD9(FL)-ALP conjugate (human; bovine); assay: HI-1000 capture immunoassay; calibrator C3, 10.96 mU/L; run 2
[26] = biological target: CD9(FL)-ALP conjugate (human; bovine); assay: HI-1000 capture immunoassay; calibrator C2, 5.48 mU/L; mean of 3
[27] = biological target: CD9(ECD)-ALP conjugate (human; bovine); assay: HI-1000 capture immunoassay; secondary calibrator C5, 387.01 U/L; run 3
[28] = biological target: CD9(FL)-ALP conjugate (human; bovine); assay: HI-1000 capture immunoassay; calibrator C4, 21.93 mU/L; mean of 3
[29] = biological target: CD9(ECD)-ALP conjugate (human; bovine); assay: HI-1000 capture immunoassay; thawed aliquot 3 of secondary calibrator C2
[30] = biological target: CD9(ECD)-ALP conjugate (human; bovine); assay: HI-1000 capture immunoassay; primary calibrator C5, 159.87 ng/mL; run 2
[31] = biological target: CD9(FL)-ALP conjugate (human; bovine); assay: HI-1000 capture immunoassay; calibrator C2, 3.7 ng/mL; run 2
[32] = biological target: CD9(FL)-ALP conjugate (human; bovine); assay: HI-1000 capture immunoassay; calibrator C5, 43.86 mU/L; run 1
[33] = biological target: CD9(ECD)-ALP conjugate (human; bovine); assay: HI-1000 capture immunoassay; thawed aliquot 1 of secondary calibrator C4
[34] = biological target: CD9(ECD)-ALP conjugate (human; bovine); assay: HI-1000 capture immunoassay; secondary calibrator C5, 387.01 U/L; mean of 3
[35] = biological target: CD9(ECD)-ALP conjugate (human; bovine); assay: HI-1000 capture immunoassay; secondary calibrator C1, 1.02 U/L; run 1
[36] = biological target: CD9(FL)-ALP conjugate (human; bovine); assay: HI-1000 capture immunoassay; calibrator C3, 7.4 ng/mL; run 3
[37] = biological target: CD9(ECD)-ALP conjugate (human; bovine); assay: HI-1000 capture immunoassay; secondary calibrator C3, 14.32 U/L; run 1
[38] = biological target: CD9(FL)-ALP conjugate (human; bovine); assay: HI-1000 capture immunoassay; calibrator C2, 5.48 mU/L; run 2
[39] = biological target: CD9(ECD)-ALP conjugate (human; bovine); assay: HI-1000 capture immunoassay; primary calibrator C3, 15.65 ng/mL; run 1
[40] = biological target: CD9(ECD)-ALP conjugate (human; bovine); assay: HI-1000 capture immunoassay; thawed aliquot 2 of secondary calibrator C4

Sequence of CD9(ECD)-ALP conjugate (human; bovine) (chain, as listed by the source, chain 1 of 2): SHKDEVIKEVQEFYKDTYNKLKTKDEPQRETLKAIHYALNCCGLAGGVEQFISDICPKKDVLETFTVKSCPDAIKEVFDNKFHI
Sequence of CD9(ECD)-ALP conjugate (human; bovine) (P19111 20-506, chain 2 of 2): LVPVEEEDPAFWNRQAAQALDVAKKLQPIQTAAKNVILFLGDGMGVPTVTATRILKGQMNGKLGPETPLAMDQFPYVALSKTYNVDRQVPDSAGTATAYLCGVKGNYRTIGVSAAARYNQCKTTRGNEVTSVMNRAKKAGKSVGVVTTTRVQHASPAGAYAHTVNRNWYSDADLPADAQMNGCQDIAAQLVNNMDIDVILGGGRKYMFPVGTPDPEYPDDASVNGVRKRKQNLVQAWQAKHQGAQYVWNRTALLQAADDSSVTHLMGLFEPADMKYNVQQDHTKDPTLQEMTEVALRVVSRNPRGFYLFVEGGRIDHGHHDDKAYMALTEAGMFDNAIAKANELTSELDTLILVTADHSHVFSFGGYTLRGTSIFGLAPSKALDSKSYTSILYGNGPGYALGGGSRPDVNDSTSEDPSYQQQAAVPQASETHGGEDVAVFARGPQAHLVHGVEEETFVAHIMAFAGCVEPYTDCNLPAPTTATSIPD
Sequence of CD9(FL)-ALP conjugate (human; bovine) (chain, as listed by the source, chain 1 of 2): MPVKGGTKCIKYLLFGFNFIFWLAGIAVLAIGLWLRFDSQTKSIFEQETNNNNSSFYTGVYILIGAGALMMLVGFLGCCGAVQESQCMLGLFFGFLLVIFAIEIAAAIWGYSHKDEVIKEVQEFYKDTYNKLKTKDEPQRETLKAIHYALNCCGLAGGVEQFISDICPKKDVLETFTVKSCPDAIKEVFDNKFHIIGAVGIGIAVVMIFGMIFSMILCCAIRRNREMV
Sequence of CD9(FL)-ALP conjugate (human; bovine) (P19111 20-506, chain 2 of 2): as the sequence (P19111 20-506, chain 2 of 2) above

- Count value [1]: 36800 count
- Count value (av) [2]: 1560 count
- Count value [3]: 7020 count
- Count value [4]: 3780 count
- Count value [5]: 7230 count
- Count value [6]: 805 count
- Count value (av) [7]: 1480 count
- Count value [8]: 6330 count
- Count value [9]: 818 count
- Count value [10]: 13400 count
- Count value [11]: 220000 count
- Count value [12]: 3800 count
- Count value (av) [13]: 8090 count
- Count value [14]: 6980 count
- Count value [15]: 3800 count
- Count value [16]: 1580 count
- Count value [17]: 912 count
- Count value (av) [18]: 36300 count
- Count value (av) [19]: 4280 count
- Count value [20]: 1120 count
- Count value [21]: 13200 count
- Count value [22]: 26900 count
- Count value [23]: 35700 count
- Count value [24]: 1420 count
- Count value [25]: 7090 count
- Count value (av) [26]: 3640 count
- Count value [27]: 209000 count
- Count value (av) [28]: 13300 count
- Count value [29]: 1520 count
- Count value [30]: 67600 count
- Count value [31]: 8680 count
- Count value [32]: 25800 count
- Count value [33]: 11400 count
- Count value (av) [34]: 216000 count
- Count value [35]: 975 count
- Count value [36]: 7010 count
- Count value [37]: 7980 count
- Count value [38]: 3520 count
- Count value [39]: 7340 count
- Count value [40]: 12000 count
Substance: anti-CD9 antibody (Clone: H19a)
